We go through 167 variants from the RNAGym collection of RNA variant scans (doi:10.7554/elife.80360).

The chains are these.
B1: Hammerhead Ribozyme (parent)
chain: ACCGGAUGUGCUUUCCGGUCUGAUGAGUCCGUGAGGACGAAACAG
B2: Hairpin Ribozyme (parent)
chain: GUCCUCUUUCACGUGCGCGUGAAAGAGAGAAGUGAACCAGAGAAACACACGUUGUGGUAUAUUACCUGGUA

The first data set covers variants of B1. As to the kind of experiment: self-cleavage, relative activity (ratio to wild type); higher = more cleavage; co-transcriptional.
Take A40G A42U: the self-cleavage was 0.253.
On the same count and under the same terms, as for A40G A42G, the figure is 0.312; as for A40G A42C, 0.266; as for A44G G45C, 2.15.
On to A44G G45A, for which the self-cleavage was 1.25.
The same measure, in the same setting: as for A44G G45U, the figure is 1.93; as for A44U G45U, 1.91.
Consider A44U G45C, for which the self-cleavage worked out at 1.86.
For the variant A44U G45A, the self-cleavage came to 0.607.
On the same count and under the same terms, the figure for A40C A42C is 0.369.
Regarding A40C A42U, the self-cleavage came out at 0.427.
Same read-out and setting: as for A40C A42G, the figure is 0.314; as for A37U A40C, 0.472; as for A37U A40G, 0.284.
Still for that read-out and setting: as for A37U A40U, the figure is 0.303; as for C43G G45C, 0.378; as for C43G G45U, 0.835.
Regarding C43G G45A, the self-cleavage turned out to be 0.327.
Still for that read-out and setting: as for G39U A41U, the figure is 0.326.
The same measure, in the same setting: as for G39U A41G, the figure is 0.327.
As to G39U A41C, the self-cleavage is 0.368.
Regarding C43U A44U, the self-cleavage worked out at 0.346.
The same measure, in the same setting: the figure for C43U A44G is 0.586; for C43U A44C it is 1.93.
Regarding A42G G45U, the self-cleavage amounted to 0.354.
Still for that read-out and setting: as for A42G G45A, the figure is 0.306; as for A42G G45C, 0.31; as for A37U G39C, 0.326.
Still for that read-out and setting: the figure for A37U G39U is 0.362; for A37U G39A it is 0.386; for C38A C43G it is 0.382.
Same read-out and setting: the figure for C38A C43A is 0.335.
In the case of C38A C43U, the self-cleavage amounted to 0.462.
The same measure, in the same setting: the figure for A40G C43U is 0.268; for A40G C43G it is 0.358.
On the same count and under the same terms, as for A40G C43A, the figure is 0.339; as for A41C, 0.376; as for A41U, 0.393.
On the same count and under the same terms, the figure for A41G is 0.345; for C43A A44U it is 0.391; for C43A A44G it is 0.304.
Regarding C43A A44C, the self-cleavage was 0.474.
For the variant C38G G45C, the self-cleavage turned out to be 0.491.
Regarding C38G G45U, the self-cleavage was found to be 0.562.
Same read-out and setting: the figure for C38G G45A is 0.461; for C38U A41U it is 0.453; for C38U A41C it is 0.32.
As for C38U A41G, the self-cleavage stood at 0.352.
Still for that read-out and setting: as for A37U C38A, the figure is 0.693; as for A37U C38U, 0.714; as for A37U C38G, 0.384.
On the same count and under the same terms, the figure for C38G A44G is 0.833.
Still for that read-out and setting: as for C38G A44U, the figure is 0.407; as for C38G A44C, 0.508; as for C38G A40G, 0.357.
Regarding C38G A40U, the self-cleavage was found to be 0.301.
C38G A40C: the self-cleavage was found to be 0.211.
Still for that read-out and setting: as for C38G C43U, the figure is 0.393.
Consider C38G C43G, for which the self-cleavage came out at 0.288.
With C38G C43A, the self-cleavage came to 0.456.
Regarding C38A A42G, the self-cleavage came out at 0.263.
The same measure, in the same setting: the figure for C38A A42C is 0.326; for C38A A42U it is 0.283; for G39A G45C it is 0.421.
On the same count and under the same terms, the figure for G39A G45A is 0.371; for G39A G45U it is 0.372; for A40U it is 0.366.
On the same count and under the same terms, the figure for A40C is 0.73; for A40G it is 0.4; for G39U A44U it is 0.372.
On to G39U A44C, for which the self-cleavage was 0.417.
On the same count and under the same terms, as for G39U A44G, the figure is 0.676.
C43A G45C: the self-cleavage is 0.441.
Still for that read-out and setting: as for C43A G45U, the figure is 0.68; as for C43A G45A, 0.515; as for G39U, 0.363.
G39A: the self-cleavage was 0.347.
G39C: the self-cleavage is 0.455.
Turning to A41U G45C, the self-cleavage was found to be 0.392.
As to A41U G45U, the self-cleavage was 0.359.
With A41U G45A, the self-cleavage amounted to 0.401.
Regarding G45A, the self-cleavage came out at 0.842.
For G45C, the self-cleavage was 0.844.
As to G45U, the self-cleavage was determined as 0.898.
Still for that read-out and setting: as for A41C A44G, the figure is 0.594; as for A41C A44C, 0.436.
Still for that read-out and setting: as for A41C A44U, the figure is 0.3.
A40G G45A: the self-cleavage turned out to be 0.441.
In the case of A40G G45C, the self-cleavage came out at 0.466.
Same read-out and setting: the figure for A40G G45U is 0.421.
Still for that read-out and setting: as for G39C A41U, the figure is 0.305; as for G39C A41G, 0.328.
The same measure, in the same setting: as for G39C A41C, the figure is 0.351.
A44C G45A: the self-cleavage was determined as 0.932.
For A44C G45U, the self-cleavage came to 0.721.
For the variant A44C G45C, the self-cleavage was 1.14.
Still for that read-out and setting: as for A41C G45C, the figure is 0.336.
As to A41C G45U, the self-cleavage was found to be 0.41.
Take A41C G45A: the self-cleavage is 0.39.
Regarding G39A A41G, the self-cleavage was determined as 0.383.
Same read-out and setting: as for G39A A41C, the figure is 0.341; as for G39A A41U, 0.293; as for G39A A44C, 0.39.
For G39A A44U, the self-cleavage is 0.342.
Consider G39A A44G, for which the self-cleavage is 0.718.
Turning to A40U A44C, the self-cleavage was 0.474.
For the variant A40U A44U, the self-cleavage was 0.336.
On the same count and under the same terms, the figure for A40U A44G is 0.649; for C38G G39C it is 0.326.
Still for that read-out and setting: as for C38G G39U, the figure is 0.402.
In the case of C38G G39A, the self-cleavage is 0.285.
The same measure, in the same setting: as for G39C A42C, the figure is 0.355; as for G39C A42G, 0.279; as for G39C A42U, 0.39.
On the same count and under the same terms, as for A37G G39C, the figure is 0.371; as for A37G G39U, 0.307; as for A37G G39A, 0.362.
Consider C38A G39U, for which the self-cleavage is 0.315.
C38A G39C: the self-cleavage came to 0.4.
The same measure, in the same setting: the figure for C38A G39A is 0.325; for A42C C43A it is 0.368; for A42C C43U it is 0.38.
The same measure, in the same setting: as for A42C C43G, the figure is 0.271.
The same measure, in the same setting: the figure for G39A A40G is 0.383; for G39A A40C it is 0.387.
In the case of G39A A40U, the self-cleavage stood at 0.291.
For the variant A37U A44U, the self-cleavage came out at 0.417.
For the variant A37U A44C, the self-cleavage turned out to be 0.306.
On the same count and under the same terms, as for A37U A44G, the figure is 0.801.
Take G39C A40G: the self-cleavage was found to be 0.331.
Regarding G39C A40C, the self-cleavage is 0.306.
Same read-out and setting: the figure for G39C A40U is 0.296; for C38G it is 0.767; for C38U it is 0.974.
Still for that read-out and setting: as for C38A, the figure is 0.833; as for A42U A44G, 1.37; as for A42U A44U, 0.276.
On to A42U A44C, for which the self-cleavage turned out to be 0.96.
The same measure, in the same setting: the figure for A42G A44G is 0.544; for A42G A44C it is 0.484; for A42G A44U it is 0.233.
Turning to A42U, the self-cleavage amounted to 0.338.
Same read-out and setting: the figure for A42C is 0.373; for A42G it is 0.336.

Variants of B2 are the subject of a further data set. Described as above.
For the variant G1A A61C, the self-cleavage is 0.175.
As for G1A A61G, the self-cleavage is 0.132.
In the case of G1A A28C, the self-cleavage stood at 0.175.
Turning to G1A A49G, the self-cleavage worked out at 0.233.
G1A A35G: the self-cleavage is 0.16.
Consider G1A A35C, for which the self-cleavage is 0.109.
Consider G1A C3G, for which the self-cleavage was found to be 0.342.
The same measure, in the same setting: as for G1A A41G, the figure is 0.0682; as for G1A A59U, 0.286; as for G1A C18U, 0.256.
Still for that read-out and setting: as for G1A C6A, the figure is 0.197.
Same read-out and setting: as for G1A C10A, the figure is 0.175.
On to G1A C4A, for which the self-cleavage amounted to 0.248.
On the same count and under the same terms, as for G1A C4G, the figure is 0.149; as for G1A C38A, 0.111; as for G1A C16G, 0.169.
Still for that read-out and setting: the figure for G1A is 0.185; for G1A A23U it is 0.163; for G1A A36U it is 0.0776.
The same measure, in the same setting: as for G1A C37U, the figure is 0.196; as for G1A A47U, 0.257.
As to G1A C12A, the self-cleavage was 0.131.
Same read-out and setting: as for G1A C12G, the figure is 0.263.
